From the supplement of paper PMC10201428
± gives the standard deviation of the averaged measurements.

Columns and labels:
[1] = system: VchCAST RNA-guided transposition machinery (E. coli BL21(DE3) host, lacZ target); test: relative integration efficiency (T-RL orientation) vs wild-type transposon end (log2 (normalized fold change)); transposon end mutated: left end; higher = more efficient transposition
Outline: (§1)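 In E. coli BL21(DE3), a T7-driven effector plasmid was paired with a pUC57 mini-transposon donor containing 1549 left-end or 1849 right-end barcoded transposon variants. Cells grew on plates with 0.1 mM IPTG at 37°C for 18 h. Relative integration efficiency was derived from Illumina reads of genomic integration junctions against input plasmids, as a log-transformed output/input barcode fold change normalised to reference barcodes.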

[2] = system: VchCAST RNA-guided transposition machinery (E. coli BL21(DE3) host, lacZ target); test: relative integration efficiency (T-LR orientation) vs wild-type transposon end (log2 (normalized fold change)); transposon end mutated: left end; higher = more efficient transposition
Outline: as §1

Sequence | relative integration efficiency (log2) [1] | relative integration efficiency (log2) [2]
AATGTTGTTGATGCAACCATAAGTTGATATTTTATAATTATTTATAATCAGCAACTTAACCACAAAACACCCATAAATTGATATTGCACAAAAGTTGGTATTCAACTATAAAATGTGAATCGAGTATTTCAGCAAAACTACTGCAGTAAGAA | -3.48 ± 1.3 | -1.01 ± 1.3
AATGTTGTTGATGCAACCATACCTGTCGCGGGCCGCCGGCGGGCGCCGACTACCAGGCCAACACCCCACCAACGCGCGGTCGCGAGACACCCCACCAACGCCTGGTCGCGGGGGTGTCCGATCTGATTTCAGCAAAACTACTGCAGTAAGAA | < -10 | < -10
AATGTTGTTGATGCAACCATATATTGATATCTCATAATTATTTATAATCAGCAACTTAACCACAAAACAACCATAAAATGATAATTAACAAAAGTTGGTATTCAACTATAAAATGTGAATCGAGTATTTCAGCAAAACTACTGCAGTAAGAA | -3.2 ± 1.5 | -1.34 ± 1
AATGTTGTTGATGCAACCATATATTGATATCTCATAATTATTTATAATCAGCAACTTAACCACAAAACAACCATAAAGTGATATTTAACAAAAGTTGGTATTCAACTATAAAATGTGAATCGAGTATTTCAGCAAAACTACTGCAGTAAGAA | -3.25 ± 1.2 | -1.75 ± 1.5
AATGTTGTTGATGCAACCATATATTGATATCTCATAATTATTTATAATCAGCAACTTAACCACAAAACAACCATAAGTTGATATTTTACAAAAGTTGGTATTCAACTATAAAATGTGAATCGAGTATTTCAGCAAAACTACTGCAGTAAGAA | -3.58 ± 1.4 | -1.84 ± 0.76
AATGTTGTTGATGCAACCATATATTGATATCTCATAATTATTTATAATCAGCAACTTAACCACAAAACAACCATATATTGATATCTCACAAAAGTTGGTATTCAACTATAAAATGTGAATCGAGTATTTCAGCAAAACTACTGCAGTAAGAA | -3.5 ± 1.4 | -2.34 ± 0.9
AATGTTGTTGATGCAACCATATATTGATATCTCATAATTATTTATAATCAGCAACTTAACCACAAAACACCCATAAATTGATAATTAACAAAAGTTGGTATTCAACTATAAAATGTGAATCGAGTATTTCAGCAAAACTACTGCAGTAAGAA | -3.56 ± 1.4 | -1.08 ± 1.5
AATGTTGTTGATGCAACCATATATTGATATCTCATAATTATTTATAATCAGCAACTTAACCACAAAACACCCATAAATTGATATTGCACAAAAGTTGGTATTCAACTATAAAATGTGAATCGAGTATTTCAGCAAAACTACTGCAGTAAGAA | -4.07 ± 1.2 | -2.2 ± 1.6
AATGTTGTTGATGCAACCATATTCACATATTTAATAATTATTTATAATCAGCAACTTAACCACAAAACAACCATAATAACATATCTCACAAAACAACCATATCAACATATTTTTGTGAATCGAGTATTTCAGCAAAACTACTGCAGTAAGAA | -7.41 ± 0.33 | < -10
AATGTTGTTGATGCAACCATCCCTGTCGCGGGCCGCCGGCGGGCGCCGACTACCAGGCCAACACCCCACCAACGCGCGGTCGCGAGACACCCCACCAACGCCTGGTCGCGGGGGTGTCCGATCTGATTTCAGCAAAACTACTGCAGTAAGAA | < -10 | -9.26 ± 0.31
AATGTTGTTGATGCACCCATAAATTGATAATTAATAATTATTTATAATCAGCAACTTAACCACAAAACAACCATAAAATGATAATTAACAAAAGTTGGTATTCAACTATAAAATGTGAATCGAGTATTTCAGCAAAACTACTGCAGTAAGAA | -2.86 ± 1.1 | -0.947 ± 1.4
AATGTTGTTGATGCACCCATAAATTGATAATTAATAATTATTTATAATCAGCAACTTAACCACAAAACAACCATAAAGTGATATTTAACAAAAGTTGGTATTCAACTATAAAATGTGAATCGAGTATTTCAGCAAAACTACTGCAGTAAGAA | -2.92 ± 1.1 | -1.55 ± 1.7
AATGTTGTTGATGCACCCATAAATTGATAATTAATAATTATTTATAATCAGCAACTTAACCACAAAACAACCATAAGTTGATATTTTACAAAAGTTGGTATTCAACTATAAAATGTGAATCGAGTATTTCAGCAAAACTACTGCAGTAAGAA | -3.01 ± 1.1 | -1.17 ± 0.98
AATGTTGTTGATGCACCCATAAATTGATAATTAATAATTATTTATAATCAGCAACTTAACCACAAAACAACCATATATTGATATCTCACAAAAGTTGGTATTCAACTATAAAATGTGAATCGAGTATTTCAGCAAAACTACTGCAGTAAGAA | -2.76 ± 1.1 | -1.82 ± 1.9
AATGTTGTTGATGCACCCATAAATTGATAATTAATAATTATTTATAATCAGCAACTTAACCACAAAACACCCATAAATTGATAATTAACAAAAGTTGGTATTCAACTATAAAATGTGAATCGAGTATTTCAGCAAAACTACTGCAGTAAGAA | -2.87 ± 0.73 | -1.11 ± 1.5
AATGTTGTTGATGCACCCATAAATTGATAATTAATAATTATTTATAATCAGCAACTTAACCACAAAACACCCATAAATTGATATTGCACAAAAGTTGGTATTCAACTATAAAATGTGAATCGAGTATTTCAGCAAAACTACTGCAGTAAGAA | -3.68 ± 1.4 | -1.72 ± 0.67

Sequence | relative integration efficiency (log2) [1] | relative integration efficiency (log2) [2]
AATGTTGTTGATGCACCCATAAATTGATATTGCATAATTATTTATAATCAGCAACTTAACCACAAAACAACCATAAAATGATAATTAACAAAAGTTGGTATTCAACTATAAAATGTGAATCGAGTATTTCAGCAAAACTACTGCAGTAAGAA | -3.11 ± 1.5 | -1.26 ± 0.57
AATGTTGTTGATGCACCCATAAATTGATATTGCATAATTATTTATAATCAGCAACTTAACCACAAAACAACCATAAAGTGATATTTAACAAAAGTTGGTATTCAACTATAAAATGTGAATCGAGTATTTCAGCAAAACTACTGCAGTAAGAA | -3.26 ± 1 | -1.73 ± 0.93
AATGTTGTTGATGCACCCATAAATTGATATTGCATAATTATTTATAATCAGCAACTTAACCACAAAACAACCATAAGTTGATATTTTACAAAAGTTGGTATTCAACTATAAAATGTGAATCGAGTATTTCAGCAAAACTACTGCAGTAAGAA | -3.46 ± 1.6 | -1.34 ± 1.4
AATGTTGTTGATGCACCCATAAATTGATATTGCATAATTATTTATAATCAGCAACTTAACCACAAAACAACCATATATTGATATCTCACAAAAGTTGGTATTCAACTATAAAATGTGAATCGAGTATTTCAGCAAAACTACTGCAGTAAGAA | -3.48 ± 0.92 | -1.64 ± 1.3
AATGTTGTTGATGCACCCATAAATTGATATTGCATAATTATTTATAATCAGCAACTTAACCACAAAACACCCATAAATTGATAATTAACAAAAGTTGGTATTCAACTATAAAATGTGAATCGAGTATTTCAGCAAAACTACTGCAGTAAGAA | -3.57 ± 1.4 | -1.55 ± 1.2
AATGTTGTTGATGCACCCATAAATTGATATTGCATAATTATTTATAATCAGCAACTTAACCACAAAACACCCATAAATTGATATTGCACAAAAGTTGGTATTCAACTATAAAATGTGAATCGAGTATTTCAGCAAAACTACTGCAGTAAGAA | -4.32 ± 0.9 | -2.41 ± 2
AATGTTGTTGATGGTTGGTATTTCACTATAAATATAATTATTTATAATCAGCAACTTAACCACAAAAGTTGGTATATAACTATAGAGACAAAAGTTGGTATTCAACTATAAAATGTGAATCGAGTATTTCAGCAAAACTACTGCAGTAAGAA | -8.52 ± 0.29 | < -10
AATGTTGTTGATGTAATTATCATTTTATGGTTGATAATTATTTATAATCAGCAACTTAACCACAAAACAACCATAAAATGATAATTAACAAAATAATTATCATTTTATGGTTGTGTGAATCGAGTATTTCAGCAAAACTACTGCAGTAAGAA | -7.72 ± 0.59 | < -10
AATGTTGTTGATGTAATTATCATTTTATGGTTGATAATTATTTATAATCAGCAACTTAACCACAAAACAACCATAAAATGATAATTATTTTGTCAACCATAAAATGATAATTATGTGAATCGAGTATTTCAGCAAAACTACTGCAGTAAGAA | -8.78 ± 0.35 | < -10
AATGTTGTTGATGTAATTATCATTTTATGGTTGATAATTATTTATAATCAGCAACTTAACCACAAAATAATTATCATTTTATGGTTGACAAAATAATTATCATTTTATGGTTGTGTGAATCGAGTATTTCAGCAAAACTACTGCAGTAAGAA | < -10 | < -10
AATGTTGTTGATGTCAACCATAAAGTGATATTTAATAATTATTTATAATCAGCAACTTAACCACAAAACAACCATATATTGATATCTCACAAAACAACCATAAGTTGATATTTTTGTGAATCGAGTATTTCAGCAAAACTACTGCAGTAAGA | -0.694 ± 0.2 | -0.718 ± 0.039
AATGTTGTTGATGTGCAACCATAAAGTGATATTTAATAATTATTTATAATCAGCAACTTAACCACAAAACAACCATATATTGATATCTCACAAAACAACCATAAGTTGATATTTTTGTGAATCGAGTATTTCAGCAAAACTACTGCAGTAAG | -6.45 ± 0.8 | < -10
AATGTTGTTGATGTGTCAACCATAAAGTGATATTTAATAATTATTTATAATCAGCAACTTAACCACAAAACAACCATATATTGATATCTCACAAAACAACCATAAGTTGATATTTTTGTGAATCGAGTATTTCAGCAAAACTACTGCAGTAA | -1.14 ± 0.25 | -2.19 ± 1.3
AATGTTGTTGATGTGTTCAACCATAAAGTGATATTTAATAATTATTTATAATCAGCAACTTAACCACAAAACAACCATATATTGATATCTCACAAAACAACCATAAGTTGATATTTTTGTGAATCGAGTATTTCAGCAAAACTACTGCAGTA | -6.33 ± 0.89 | < -10
AATGTTGTTGATGTGTTGATGCAACCATAAAGTGATATTTAATAATTATTTATAATCAGCAACTTAACCACAAAACAACCATATATTGATATCTCACAAAACAACCATAAGTTGATATTTTTGTGAATCGAGTATTTCAGCAAAACTACTGC | -0.31 ± 0.015 | -0.829 ± 0.034
